Source: US20140051120A1 (Genentech, published 2014)
Where two headings read alike, the source gives them in different places. Where no end group is shown, it is not given here.

T1: p5 peptide of EGFL7 (human)
T1 construct: also called Peptide P5
T1 peptide: RACSTYRTIYRTA

T2: mouse EGFL7 (mEGFL7-CB-His) (mouse, UniProt Q9QXT5 22-275)
T2 sequence: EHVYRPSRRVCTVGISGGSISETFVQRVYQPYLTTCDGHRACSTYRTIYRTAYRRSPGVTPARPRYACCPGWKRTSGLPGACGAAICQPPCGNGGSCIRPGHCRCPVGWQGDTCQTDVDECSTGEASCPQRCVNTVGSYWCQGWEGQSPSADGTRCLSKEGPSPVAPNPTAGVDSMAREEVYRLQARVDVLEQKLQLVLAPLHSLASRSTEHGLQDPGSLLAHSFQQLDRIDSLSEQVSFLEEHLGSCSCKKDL

T3: p2S (p2 peptide biotinylated through its free cysteine) (human, also: biotinylated (maleimide PEO2-biotin) on one of the two Cys, which one not given here)
T3 construct: The peptide has two cysteines; also called b-p2S
T3 peptide: RPRYACCPGWKRT


What was measured:
[1] = target: T1, p5 peptide of EGFL7; assay: SPR (Biacore), IgG over immobilized P5 peptide at 37 C, n = 2
[2] = target: T2, mouse EGFL7 (mEGFL7-CB-His); assay: SPR (Biacore), IgG over immobilized mEGFL7-CB at 37 C, n = 2
Method: (§1) Affinity determinations were performed by surface plasmon resonance using a BIAcore™-2000. Truncated EGFL7 or p5 peptide was immobilized (approximately 50-200 RU) in 10 mM sodium acetate pH 4.8 on a CMS sensor chip. Purified IgG variants were injected (using a 2-fold serial dilution of 0.5 to 1000 nM in PBST) at a flow rate of 30 μL/min. Each sample was analyzed with 3-minute association and 3.5-minute disassociation. After each injection the chip was regenerated using 10 mM glycine pH 1.7.
(§2) Binding response was corrected by subtracting a control flow cell from IgG variant flow cells. A 1:1 Languir model of simultaneous fitting of kₒₙ and koff was used for kinetics analysis.

[3] = target: T2, mouse EGFL7 (mEGFL7-CB-His); assay: SPR (Biacore), IgG over immobilized mEGFL7-CB at 37 C;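 further: IgG injected as twofold series from 0.5 to 1000 nM, 3 min association and 3.5 min dissociation, reference flow cell subtracted, kinetics fitted to 1:1 Langmuir model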
Method: as §1, §2

[4] = target: T3, p2S (p2 peptide biotinylated through …); assay: SPR (BIAcore-2000), IgG injected over immobilized p2S peptide
Method: (§3) Affinity determinations were performed by surface plasmon resonance using a BIAcore™-2000. […] Purified IgG variants were injected (using a 2-fold serial dilution of 0.5 to 1000 nM in PBST) at a flow rate of 30 μL/min. Each sample was analyzed with 3-minute association and 3.5-minute disassociation. After each injection the chip was regenerated using 10 mM glycine pH 1.7.
as §2

[5] = target: EGFL7 coated on plates in the cell adhesion assay (human or mouse, not told apart at this place); assay: cell-based or functional assay
[6] = target: T3, p2S (p2 peptide biotinylated through …); assay: SPR (BIAcore-2000), IgG injected over immobilized p2S peptide
Method: as §3, §2

Binder	Kd [1]	koff [1]	kon [1]	Kd [4]	koff [4]	kon [4]	Kd [6]	koff [6]	kon [6]	further results
18F7.v6C IgG (antibody, V domains shown, IgG; Variant of 18F7.v6) VH: EVQLVESGGGLVQPGGSLRLSCAASGYTFIDYYMNWVRQAPGKGLEWVGDINLDNSGTHYNQKFKGRFTISRDKSKNTAYLQMNSLRAEDTAVYYCAREGVYHDYDDYAMDYWGQGTLVTVSS VL: DIQMTQSPSSLSASVGDRVTITCRTSQSLVHINGITYLHWYQQKPGKAPKLLIYRVSNRFSGVPSRFSGSGSGTDFTLTISSLQPEDFATYYCGQSTHVPLTFGQGTKVEIK	4.13 nM	0.000502 s⁻¹	124000 M⁻¹ s⁻¹							Kd [2]: 2.4 nM; koff [2]: 8.1e-05 s⁻¹; kon [2]: 36000 M⁻¹ s⁻¹
18F7.v6A IgG (antibody, V domains shown, IgG; Variant of 18F7.v6) VH: EVQLVESGGGLVQPGGSLRLSCAASGYTFIDYYMNWVRQAPGKGLEWVGDINLDNGGTHYNQKFKGRFTISRDKSKNTAYLQMNSLRAEDTAVYYCAREGVYHDYDDYAMDYWGQGTLVTVSS VL: DIQMTQSPSSLSASVGDRVTITCRTSQSLVHISGITYLHWYQQKPGKAPKLLIYRVSNRFSGVPSRFSGSGSGTDFTLTISSLQPEDFATYYCGQSTHVPLTFGQGTKVEIK	3.74 nM	0.00137 s⁻¹	373000 M⁻¹ s⁻¹							Kd [2]: 7.29 nM; koff [2]: 0.000404 s⁻¹; kon [2]: 55000 M⁻¹ s⁻¹
18F7.v6B IgG (antibody, V domains shown, IgG; Variant of 18F7.v6) VH: EVQLVESGGGLVQPGGSLRLSCAASGYTFIDYYMNWVRQAPGKGLEWVGDINLDSGGTHYNQKFKGRFTISRDKSKNTAYLQMNSLRAEDTAVYYCAREGVYHDYDDYAMDYWGQGTLVTVSS VL: DIQMTQSPSSLSASVGDRVTITCRTSQSLVHINGITYLHWYQQKPGKAPKLLIYRVSNRFSGVPSRFSGSGSGTDFTLTISSLQPEDFATYYCGQSTHVPLTFGQGTKVEIK	3.22 nM	0.000638 s⁻¹	196000 M⁻¹ s⁻¹							Kd [2]: 2.68 nM; koff [2]: 0.000174 s⁻¹; kon [2]: 79000 M⁻¹ s⁻¹
18F7.v6D IgG (antibody, V domains shown, IgG; Variant of 18F7.v6) VH: EVQLVESGGGLVQPGGSLRLSCAASGYTFIDYYMNWVRQAPGKGLEWVGDINLDSGGTHYNQKFKGRFTISRDKSKNTAYLQMNSLRAEDTAVYYCAREGVYHDYDDYAMDYWGQGTLVTVSS VL: DIQMTQSPSSLSASVGDRVTITCRTSQSLVHISGITYLHWYQQKPGKAPKLLIYRVSNRFSGVPSRFSGSGSGTDFTLTISSLQPEDFATYYCGQSTHVPLTFGQGTKVEIK	9.77 nM	0.00232 s⁻¹	313000 M⁻¹ s⁻¹							Kd [3]: 7.65 nM; koff [3]: 0.000791 s⁻¹; kon [3]: 103000 M⁻¹ s⁻¹
4F11.v15 IgG (antibody, name in Kabat numbering, V domains shown, IgG; Kabat numbering) VH: EVQLVESGGGLVQPGGSLRLSCAASGHTFTTYGMSWVRQAPGKGLEWVGWINTHSGVPTYADDFKGRFTISLDNSKNTAYLQMNSLRAEDTAVYYCARLGSSAVDYWGQGTLVTVSS VL: DIQMTQSPSSLSASVGDRVTITCKASQSVDYDGDSYMSWYQQKPGKAPKLLIYGASNLESGVPSRFSGSGSGTDFTLTISSLQPEDFATYYCQQNNEDPYTFGQGTKVEIKR				30.5 nM	0.00276 s⁻¹	90500 M⁻¹ s⁻¹				
4F11.v6 IgG (antibody, V domains shown, IgG; Kabat numbering) VH: EVQLVESGGGLVQPGGSLRLSCAASGHTFTTYGMSWVRQAPGKGLEWVGWINTHSGVPTYADDFKGRFTISRDNSKNTVYLQMNSLRAEDTAVYYCARLGSSAVDYWGQGTLVTVSS VL: DIQMTQSPSSLSASVGDRVTITCKASQSVDYDGDSYMSWYQQKPGKAPKLLIYGASYLESGVPSRFSGSGSGTDFTLTISSLQPEDFATYYCQQNNEDPYTFGQGTKVEIK							19.5 nM	0.0024 s⁻¹	123000 M⁻¹ s⁻¹	Cell Adhesion Assay Variant/ch4F11 (fold) [5]: 4.01 fold
4F11.v5 IgG (antibody, V domains shown, IgG; Kabat numbering) VH: EVQLVESGGGLVQPGGSLRLSCAASGHTFTTYGMSWVRQAPGKGLEWVGWINTHSGVPTYADDFKGRFTISRDNSKNTVYLQMNSLRAEDTAVYYCARLGSSAVDYWGQGTLVTVSS VL: DIQMTQSPSSLSASVGDRVTITCKASQSVDYDGDSYVSWYQQKPGKAPKLLIYGASNLESGVPSRFSGSGSGTDFTLTISSLQPEDFATYYCQQNNEDPYTFGQGTKVEIK							34 nM	0.00242 s⁻¹	71100 M⁻¹ s⁻¹	
4F11.v10 IgG (antibody, V domains shown, IgG; Kabat numbering) VH: EVQLVESGGGLVQPGGSLRLSCAASGHTFTTYGMSWVRQAPGKGLEWVGWINTHSGVPTYADDFKGRFTISRDNSKNTVYLQMNSLRAEDTAVYYCARLGSYAVDYWGQGTLVTVSS VL: DIQMTQSPSSLSASVGDRVTITCKASQSVDYDGDSYMSWYQQKPGKAPKLLIYGASYLESGVPSRFSGSGSGTDFTLTISSLQPEDFATYYCQQNNEDPYTFGQGTKVEIK							27.4 nM	0.00197 s⁻¹	72000 M⁻¹ s⁻¹	Cell Adhesion Assay Variant/ch4F11 (fold) [5]: 4.38 fold
4F11.v9 IgG (antibody, V domains shown, IgG; Kabat numbering) VH: EVQLVESGGGLVQPGGSLRLSCAASGHTRTTYGMSWVRQAPGKGLEWVGWINTHSGVPTYADDFKGRFTISRDNSKNTVYLQMNSLRAEDTAVYYCARLGSSAVDYWGQGTLVTVSS VL: DIQMTQSPSSLSASVGDRVTITCKASQSVDYDGDSYMSWYQQKPGKAPKLLIYGASNLESGVPSRFSGSGSGTDFTLTISSLQPEDFATYYCQQNNEDPYTFGQGTKVEIK							9 nM	0.0023 s⁻¹	264000 M⁻¹ s⁻¹	
4F11.v14 IgG (antibody, name in Kabat numbering, V domains shown, IgG; Kabat numbering) VH: EIQLVESGGGLVQPGGSLRLSCAASGHTFTTYGMSWVRQAPGKGLEWMGWINTHSGVPTYADDFKGRFTFSLDTSASTAYLQMNSLRAEDTAVYFCARLGSSAVDYWGQGTLVTVSS VL: DIQLTQSPSSLSASVGDRVTITCKASQSVDYDGDSYMSWYQQKPGKAPKLLIYGASNLESGVPSRFSGSGSGTDFTLTISSLQPEDFATYYCQQNNEDPYTFGQGTKVEIKR				7 nM	0.000984 s⁻¹	141000 M⁻¹ s⁻¹				
4F11.v16 IgG (antibody, name in Kabat numbering, V domains shown, IgG; Kabat numbering) VH: EIQLVESGGGLVQPGGSLRLSCAASGHTFTTYGMSWVRQAPGKGLEWMGWINTHSGVPTYADDFKGRFTFSLDTSASTAYLQMNSLRAEDTAVYFCARLGSSAVDYWGQGTLVTVSS VL: DIQMTQSPSSLSASVGDRVTITCKASQSVDYDGDSYMSWYQQKPGKAPKLLIYGASNLESGVPSRFSGSGSGTDFTLTISSLQPEDFATYYCQQNNEDPYTFGQGTKVEIKR				16.8 nM	0.00165 s⁻¹	98100 M⁻¹ s⁻¹				
4F11.v13 IgG (antibody, name in Kabat numbering, V domains shown, IgG; Kabat numbering) VH: EVQLVESGGGLVQPGGSLRLSCAASGHTFTTYGMSWVRQAPGKGLEWVGWINTHSGVPTYADDFKGRFTISLDNSKNTAYLQMNSLRAEDTAVYYCARLGSSAVDYWGQGTLVTVSS VL: DIQLTQSPSSLSASVGDRVTITCKASQSVDYDGDSYMSWYQQKPGKAPKLLIYGASNLESGVPSRFSGSGSGTDFTLTISSLQPEDFATYYCQQNNEDPYTFGQGTKVEIKR				12.5 nM	0.00186 s⁻¹	149000 M⁻¹ s⁻¹				
4F11.v12 IgG (antibody, V domains shown, IgG; Kabat numbering) VH: EVQLVESGGGLVQPGGSLRLSCAASGHTFTTYGMSWVRQAPGKGLEWVGWINIHSGVPTYADDFKGRFTISRDNSKNTVYLQMNSLRAEDTAVYYCARLGSSAVDYWGQGTLVTVSS VL: DIQMTQSPSSLSASVGDRVTITCKASQSVDYDGDSYMSWYQQKPGKAPKLLIYGASNLESGVPSRFSGSGSGTDFTLTISSLQPEDFATYYCQQNNEDPYTFGQGTKVEIK							11.1 nM	0.00218 s⁻¹	196000 M⁻¹ s⁻¹	
